Columns and labels:
[1] = target: dynamic microtubules grown from purified bovine brain tubulin (bovine) (UniProt Q6B856); experiment: optical trap rupture force assay; kinetochores purified without benzonase, held on beads by anti-penta-His antibody via Dsn1-6His-3M3DK, attached to the tip of dynamic microtubules grown from coverslip-anchored seeds; BRB80 growth buffer, 23 °C; force raised at 0.25 pN/s until detachment
[2] = target: dynamic microtubules grown from purified bovine brain tubulin (bovine) (UniProt Q6B856); experiment: optical trap rupture force assay; kinetochores purified with benzonase, held on beads by anti-penta-His antibody via Dsn1-6His-3M3DK, attached to the tip of dynamic microtubules grown from coverslip-anchored seeds; BRB80 growth buffer, 23 °C; force raised at 0.25 pN/s until detachment

Substance: K. marxianus kinetochores purified via Dsn1-6His-3M3DK (from UniProt A0ABX6F0Z3 1-547) (complex)
- median rupture force [1]: 7.5 pN
- median rupture force [2]: 6.4 pN

Substance: S. cerevisiae kinetochores purified via Dsn1-6His-3M3DK (from UniProt P40568 1-576) (complex)
- median rupture force [1]: 7.2 pN

— paper PMC12226651
